To fix the notation:
T1: human ASGR-1 (wild type) (human, UniProt P07306 1-291)
T1 construct: also called wt ASGR1; huASGR-1
T1 sequence: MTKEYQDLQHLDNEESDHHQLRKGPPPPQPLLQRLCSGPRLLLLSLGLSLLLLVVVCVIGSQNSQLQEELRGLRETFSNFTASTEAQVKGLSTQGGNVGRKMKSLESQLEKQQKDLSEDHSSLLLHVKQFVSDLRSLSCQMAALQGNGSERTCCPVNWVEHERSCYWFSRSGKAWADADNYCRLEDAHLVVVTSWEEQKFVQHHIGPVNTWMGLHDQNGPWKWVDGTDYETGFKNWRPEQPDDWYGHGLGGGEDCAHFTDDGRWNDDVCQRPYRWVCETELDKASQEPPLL

T2: soluble human ASGR-1 carbohydrate binding domain (CBD; amino acid residues 154-281; N-terminal 6xHis tag) (human, UniProt P07306 154-281)
T2 construct: also called ASGR-1 CBD
T2 sequence: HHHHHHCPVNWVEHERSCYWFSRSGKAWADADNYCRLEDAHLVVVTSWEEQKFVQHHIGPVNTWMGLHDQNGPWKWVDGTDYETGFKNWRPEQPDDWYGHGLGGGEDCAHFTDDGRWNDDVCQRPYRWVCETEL

T3: Human ASGR-2 (human, UniProt P07307 1-311)
T3 construct: Expressed on HEK 293 cells; cDNA GenBank NM_080913.3; also called huASGR-2; hASGR-2
T3 sequence: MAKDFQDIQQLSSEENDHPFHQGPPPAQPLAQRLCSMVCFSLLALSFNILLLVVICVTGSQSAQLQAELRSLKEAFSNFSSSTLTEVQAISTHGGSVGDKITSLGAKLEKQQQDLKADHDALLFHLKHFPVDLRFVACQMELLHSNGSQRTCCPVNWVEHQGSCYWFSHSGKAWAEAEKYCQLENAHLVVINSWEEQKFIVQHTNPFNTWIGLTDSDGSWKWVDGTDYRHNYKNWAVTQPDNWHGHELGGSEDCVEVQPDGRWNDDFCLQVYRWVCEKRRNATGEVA

B1: 4A2 (antibody, V domains shown)
VH: QVQLVQSGTEVKKPGASVKVSCKASGYTFTNYDINWVRQATGQGLEWMGWMHPNSGNTGYAQKFQGRVTLTRNTSISTAYMELSSLRSEDTAVYYCASSSGWYYFDYWGQGTLVTVSS
VL: DIVMTQSPDSLAVSLGERATINCKSSQSILHSSNNNNYLAWFQQKPGQPPKLLLYWASTRESGVPDRFSGSGSGTDFTLTISSLQPEDVAVYYCQQYYNTPVTFGPGTKVGIK
notes: mAb
B2: 4H6 (antibody, V domains shown)
VH: QVQLVQSGAEVKKPGASVKVSCKASGYTFTDYYLHWVRQAPGQGLEWMGWIHPNSGGTNYAQKFQGRVTMTRDTSISTAYMGLSSLRSDDTAVYYCARDGTSSFDYWGQGTLVTVSS
VL: DIQMTQSPSSVSASVGDRVTITCRASQGISRWLAWYQQKPGKAPKLLIYGASSLQSGVPSRFSGSGSGTDFTLTISSLQPEDFAIYYCQQANSFPFTFGPGTKVDIK
notes: Tested as hybridoma supernatant at normalized concentration
B3: 72G9 (antibody, V domains shown)
VH: EVQLVESGGGLVKPGGSLRLSCAASGFTFSSYSMNWVRQAPGKGLEWVSSISGSSSYIYYADSVKGRFTISRDNAKNSLYLQMNSLRAEDTAVYFCARGGSRGFDPWGQGTLVTVSS
VL: DIQMTQSPSSLSASVGDRVTITCRASQSITSYLNWYQQKPGKAPKLLIYTASSLQSGVPSRFSGSGSGTDFTLTISSLQPEDFATYYCQQSHSFPFTFGPGTKVDIK
notes: as for B2
B4: 56E5 (antibody, V domains shown)
VH: QVQLVQSGAEVKKPGASVKVSCQASGYTFTGYHMHWVRQAPGQGLEWMGWINPNNNATNYAQKFQGRVTMTRDTSISTAYMELRRLRSDDTAVYHCARDGTSSFDYWGQGTLVTVSS
VL: DIQMTQSPSSVSASVGDRVTITCRASQGIRKWLAWYQQKPGKAPKLLIYAASSLQSGVPSRFSGSGSGTDFTLTISSLQPEDFATYYCQQANSFPFTFGPGTKVDIK
notes: as for B2
B5: 184E7 (antibody, V domains shown)
VH: QVQLVQSGAEVKTPGASVKVSCRASGYTFTSYNMHWVRQVPGQGLEWMGWINPNNGGSNYTQKFQGRVTMTRDTSISTAYMELSRLRSDDTAVYYCARKFGDWGQGTLVTVSS
VL: DIQMTQSPSSRSASIGERVTITCRASQGISNYLAWIQQKPGTAPKSLIYAASSLQSGVSSRFSGSGFGTDFTITISSVQREDFATYYCQQYNGYPFTFGHGTKVDIK
notes: as for B2
B6: 48B12 (antibody, V domains shown)
VH: EVQLLESGGGLVQPGGSLRLSCAASGFTFSSYAMNWVRQAPGKGLEWVSAISGRGGNTFYADSVKGRFTISRDNSKNTLYLQMNSLRAEDTAVYYCAKRETYNWNYEGFDYWGQGTLVTVSS
VL: SYELTQPPSVSVSPGQTARITCSGDALPKKYAYWYQQKSGQAPVLVIYEDSKRPSGIPERFSGSSSGTMATLTISGAQVEDEADYYCNSTDSSGNHVVFGGGTKLTVL
notes: as for B2
B7: 4B1 (antibody, V domains shown)
VH: QVQLQESGPGLVKPSETLSLTCSVSGDSISSYSWSWIRQPAGKGLEWIGRIYTSGSTNYIPSLKSRITMSVDTSKKQFSLKLSSVTAADTAVYYCARDLKSSGCLFFDYWGQGTLVTVSS
VL: DIQMTQSPSSLSASVGDRVTITCRASHTIRTYLNWYQQKPGKAPKLLIYAASSLQSGVPSRINGSGSGTDFTLTITNLQPEDFATYYCQQSYNISFTFGPGTKVDIK
notes: as for B2
B8: 12D2 (antibody, V domains shown)
VH: EVQLVESGGGLVKPGGSLRLSCAASGFTFSSYSMNWVRQAPGKGLEWVSSISSSSSYIYYADSVKGRFTISRDNAKNSLYLQMNSLRAEDTAVYYCARLGDYWGQGTLVAVSS
VL: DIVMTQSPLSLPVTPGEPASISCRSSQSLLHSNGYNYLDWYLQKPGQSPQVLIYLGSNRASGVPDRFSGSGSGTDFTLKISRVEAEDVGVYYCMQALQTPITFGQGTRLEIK
notes: as for B2
B9: 25A4 (antibody, V domains shown)
VH: QVLLVQSGAEVKRPGASVKVSCKASGYTFTNYDINWVRQATGQGLEWMGWMYPNSGNTGYAQKFQGRVTMTRNTSISTAYMELSSLRSEDTAVYYCASSSGWYYFDYWGQGTLVTVSS
VL: DIVMTQFPDSLAVSLGERATIKCKSSQSVLYSSHNNNYLAWYQQKPGQPPKLLLYWASTRESGVPDRFSGSGSGTEFTLTISSLEAEDVAVYYCQQYYSTPPTFGQGTKVEIK
notes: as for B2
B10: 4A2 (antibody, V domains shown)
VH: QVQLVQSGTEVKKPGASVKVSCKASGYTFTNYDINWVRQATGQGLEWMGWMHPNSGNTGYAQKFQGRVTLTRNTSISTAYMELSSLRSEDTAVYYCASSSGWYYFDYWGQGTLVTVSS
VL: DIVMTQSPDSLAVSLGERATINCKSSQSILHSSNNNNYLAWFQQKPGQPPKLLLYWASTRESGVPDRFSGSGSGTDFTLTISSLQPEDVAVYYCQQYYNTPVTFGPGTKVGIK
notes: as for B2
B11: 26C4 (antibody, V domains shown)
VH: QVQLVQSGAEVKKPGASVKVSCKASGYTFTNYDINWVRQASGQGLEWMGWMNPNSGNTGYAQRFQGRVTMTRNTSINTAYMELSSLRSEDTAVYYCASSSGWYYFDYWGQGTLVTVSS
VL: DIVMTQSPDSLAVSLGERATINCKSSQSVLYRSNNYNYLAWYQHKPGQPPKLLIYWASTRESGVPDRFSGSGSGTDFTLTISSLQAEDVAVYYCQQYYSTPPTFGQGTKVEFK
notes: as for B2
B12: 29H8 (antibody, V domains shown)
VH: QVQLVQSGAEVQKPGASVKVSCKASGYTFTNYDINWVRQATGQGLEWMGWMNPNSGNTGYAQRFQGRVTMTRNTSISAAYMELSSLRSEDTAVYYCASSSGWYYFDYWGQGTLVTVSS
VL: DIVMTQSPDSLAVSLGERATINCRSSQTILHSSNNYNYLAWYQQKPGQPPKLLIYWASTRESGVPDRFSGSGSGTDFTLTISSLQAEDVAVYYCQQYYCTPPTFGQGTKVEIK
notes: as for B2
B13: 194A4 (antibody, V domains shown)
VH: QVQLVQSGTEVKKPGASLKVSCKASGYTFTVYYLNWVRQAPGQGLEWMGWINPNSGGTNYAQKFQGRVTMTRDTSISTAYMELSRLRSDDTAVYYCARGYDILTGWGQGTLVTVSS
VL: EIVLTQSPGTLSLSPGERATLSCRASRGVSNIYLAWYQQKPGQAPRLLIYGASNRATGIPDRFSGSGSGTDFTLTISRLEPEDFAVYYCQHNDYSMFTFGPGTKVDIK
notes: as for B2

In one experiment the target is T1, human ASGR-1 (wild type). Description: flow cytometry, CHO-S:huASGR-1 cells, 11-point titration. The method, then: CHO—S stable high-expressing cell line were developed for both human ASGR-1 as well as mouse ASGR-1. A typical 384 well plate multiplex flow cytometery-based cell binding method is described as followed: Parental CHO—S cells and CHO—S:huASGR-1 cells were respectively labeled using a CellTrace CFSE Cell Proliferation Kit (ThermoFisher Catalog #C34554) and CellTrace Violet Cell Proliferation Kit (ThermoFisher Catalog#C34557) CHO—S:muASGR-1 were not labeled. 20 ul of cells at 4C were added to duplicate wells of the 384 well plate. The cells were equally mixed from all three cell lines (30K cells/well). Then 20 ul of the ASGR-1 antibodies (either purified from hybridoma supernatants or made recombinantly) were added in an 11-point dose response using a 1:2 fold serial dilution starting at 100 nM. The cells and antibodies were incubated for 30 min at 4C and then spun down and washed twice with FACS buffer containing 1 mM CaCl2. 30 ul of anti-hulgG-APC secondary antibodies were then added at a 1:1000 dilution) for 30 min at 4C and then washed once with the same buffer. 60 ul of PI (1:1000) was added and then the cells were read by a core flow cytometry facility. The cells were gated first for live cells, then for single cells and finally for the cell dyes to separate the mixed cells into the three different cell populations. Histograms of signal vs count representing the binding profile of each antibody at each antibody concentration were automatically analyzed for the median of the binding signal and then a binding graph was made with log 10 antibody concentration in nM on the X axis with […] from the duplicate wells on the Y-axis. The binding curves were fit with a standard four parameter sigmoidal binding curve and EC50's reported for all graphs with full curves.
The EC50 is the concentration that produces a half-maximal response. B1 gave a half-maximal effective concentration (EC50) of 0.82 nM.

The target of another experiment is T2, soluble human ASGR-1 carbohydrate …. The experiment in a line: Octet BLI, mAb on AR2G tips, 1:1 fit. The source says:
To quantitate the binding affinity of specific antibodies for ASGR-1 (either purified from hybridoma supernatants or made recombinantly), association and dissociation rates can be measured using a ForteBio Octet instrument. […] Experimental kinetic results were globally fit to a 1:1 binding model in order to determine the association and dissociation rate constants as well as the equilibrium dissociation constant. Association and dissociation times were chosen to ensure that curvature was present during association curves and measured dissociation levels dropped at least 5% from starting levels. All Octet buffers contained 10 mM Tris (pH7.5), 150 mM NaCl, 1 mM CaCl₂), 0.10 mg/ml BSA and 0.13% Triton X-100. Octet assays were run at 27° C. Because this assay only measures binding to the ASGR-1 CBD, antibodies that recognize epitopes partially or entirely outside the CBD and/or recognize ASGR-1 in the context of a native ASGR complex, for example, as could occur on cell membranes, may not score as positive in this assay.
As a reminder, the Kd is the concentration at which binding is half-saturated. Take B1: the Kd amounted to 0.06 nM.

Another experiment has as its target T3, Human ASGR-2. Description: FACS on transfected HEK 293 cells; binding = signal at least 2x irrelevant IgG. The method, then: Human ASGR-1-specific, ligand competing antibody samples were tested for binding to ASGR-1 from other species (cynomologus monkey ASGR-1, mouse ASGR-1, rat ASGR-1, dog ASGR-1, and pig ASGR-1) as well as to human ASGR-2 in FACS binding assays at normalized antibody concentrations. For cell-based assays, HEK 293 cells expressing the appropriate antigen of interest were mixed with antibody sample or controls, incubated for 1 hour at 4° C., and then washed twice. Cells with bound antibody were then incubated with Alexa Fluor® 647 IgG Fc fragment-specific detection antibody and 7-AAD viability stain for 15 minutes at 4° C., washed once and resuspended in FACS buffer. Samples were analyzed using a BD Accuri™ Flow Cytometer and an Intellicyt HyperCyt Autosampler. As a negative control, supernatants and controls were also screened against HEK 293 cells transfected with empty parental vector. […] For membrane-prep binding assays, ASGR-1 species specific membrane preps were used to coat LumAvidin® microspheres (beads) and tested for binding to selected hybridoma supernatants or controls. Briefly, ASGR-1 species specific membrane preps were incubated with streptavidin-coated LumAvidin® beads for 45 minutes in the dark at room temperature and washed twice. Beads were resuspeneded in FACS buffer containing Stabilguard®. Antigen-bound beads were then incubated with normalized antibody sample for 1 hour in the dark at room temperature, washed twice, incubated with Alexa Fluor® 488 IgG Fc fragment-specific detection antibody for 15 minutes in the dark at room temperature, washed once and finally resuspended in FACS buffer. Samples were analyzed using an Intellicyt iQue™ Screener Platform. FACS buffer supplemented with 1 mM Calcium Chloride was used in all steps. As a negative control, supernatants and controls were also screened against a non-ASGR-1 antigen membrane prep coated on the LumAvidin® beads.
Consider B2, for which the binding result is recorded as “no binding”.

As for B3, the binding result is recorded as “no binding”.

Regarding B4, the binding result is recorded as “no binding”.

For the molecule B5, the binding result is “no binding”.

For the molecule B6, the binding result is recorded as “no binding”.

Turning to B7, the binding result is given as “no binding”.

Take B8: the binding result was “no binding”.

Regarding B9, the binding result is “no binding”.

As for B10, the binding result is recorded as “no binding”.

Take B11: the binding result was “no binding”.

Take B12: the binding result was “no binding”.

As for B13, the binding result is “no binding”.

Values taken from US20190248902A1 (published 2019).
